Assay results taken from patent publication US20060211075A1, “Enzyme sensors including environmentally sensitive or fluorescent labels and uses thereof” (The Albert Einstein College of Medicine of Yeshiva …, priority 2005, published 2006).
Non-standard residues stand in square brackets, D forms with d. Residues, ends and D or L forms follow the SMILES beside them. No end group written: not given here. *: point of attachment. Cascade Yellow = fluorophore from Cascade Yellow succinimidyl ester, attached to the Dab or Dap side chain; pY = N[C@@H](Cc1ccc(OP(=O)(O)O)cc1)C(=O)O; NBD = O=[N+]([O-])c1ccc(*)c2nonc12; Dab = NCC[C@H](N)C(=O)O; Dap = NC[C@H](N)C(=O)O

Columns and labels:
Src [1] = target: T1, Src (Homo sapiens, UniProt P12931); assay: Src kinase-catalyzed phosphorylation of self-reporting fluorophore-peptides, fluorescence change (no detection module); conditions: for Phosphorylation-induced fluorescence change: Src, no detection module; for Fluorescence change (fold): upon phosphorylation
Method: Tyrosine kinase-catalyzed phosphorylation was initiated by addition of 15 μL of 10 mM ATP to the following solution: 3 μL 0.1 mM peptide stock solution, 3.8 μL 200 mM MgCl2, 1.5 μL 100 mM MnCl2, 23.2 μL H2O, 6 μL 50 mM DTT, 15 μL 0.1 mg/mL BSA, and 7.5 μL 0.03 μM Src in 75 μL Tris buffer solution (pH 7.2).

GST-Lck-SH2 = target: T2, GST-Lck-SH2 (Homo sapiens, UniProt P06239); assay: Fluorescence change as a function of Lck-SH2 concentration (Src-catalyzed phosphorylation); assay type: biochemical
T2 construct: made in house; host or cells: E. coli
T2 sequence (P06239 127-224 limits assumed): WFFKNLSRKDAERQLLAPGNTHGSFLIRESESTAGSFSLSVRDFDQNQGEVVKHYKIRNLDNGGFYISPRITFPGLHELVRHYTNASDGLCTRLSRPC
From the text: As is evident from Table 1, the dapoxyl fluorophore positioned off the +3 and +4 sites on the peptide substrate (Dap-5 and Dab-5) produce the largest changes in fluorescent behavior. Two peptides (13 and 14, FIG. 4) were examined in greater detail. Both peptides were resynthesized on the Rink resin and purified by HPLC. In addition, the phosphotyrosine version of 13 was enzymatically prepared. […] If the SH2 domain is responsible for the fluorescence change induced by Src kinase-catalyzed phosphorylation, then the Lck SH2 domain concentration should influence the observed fluorescence response. […] The reactions were initiated by the addition of ATP. When only buffer was added to “initiate” the reaction (i.e. no ATP), the fluorescence of the mixture remained unperturbed. Furthermore, in the absence of Lck SH2 domain, ATP addition to initiate the reaction furnished an exceedingly modest change in fluorescence intensity (<5%). By contrast, increasing concentrations of SH2 domain produced increasing enhancements in fluorescence intensity. Above an Lck SH2 concentration of 16 μM, the change in fluorescence intensity began to level off, which is in keeping with the notion that the interaction between phosphopeptide and Lck SH2 domain was approaching saturation. […] This appears to be a consequence of the —NH(CH2)2SH tail that is present on the library members (but not on the amide-capped peptides, as a consequence of the respective synthesis methods used).
(§1) The fluorescence change was monitored as a function of time. Control assays in the absence of Lck-SH2 were also performed.
The assay protocol described above was used to assess the effect of GST-Lck-SH2 concentration on the observed fluorescence associated with the phosphorylation of pure peptide 13 (30 nM Src) and peptide 14 (15 nM Src).

PTP1B = target: T3, PTP1B (Homo sapiens, UniProt P18031); assay: Effect of PTP1B on the fluorescence change; assay type: biochemical; conditions: peptide substrate 4 μM; GST-Lck-SH2 22 μM
T3 construct: purchased Invitrogen
T3 sequence (P18031 1-435): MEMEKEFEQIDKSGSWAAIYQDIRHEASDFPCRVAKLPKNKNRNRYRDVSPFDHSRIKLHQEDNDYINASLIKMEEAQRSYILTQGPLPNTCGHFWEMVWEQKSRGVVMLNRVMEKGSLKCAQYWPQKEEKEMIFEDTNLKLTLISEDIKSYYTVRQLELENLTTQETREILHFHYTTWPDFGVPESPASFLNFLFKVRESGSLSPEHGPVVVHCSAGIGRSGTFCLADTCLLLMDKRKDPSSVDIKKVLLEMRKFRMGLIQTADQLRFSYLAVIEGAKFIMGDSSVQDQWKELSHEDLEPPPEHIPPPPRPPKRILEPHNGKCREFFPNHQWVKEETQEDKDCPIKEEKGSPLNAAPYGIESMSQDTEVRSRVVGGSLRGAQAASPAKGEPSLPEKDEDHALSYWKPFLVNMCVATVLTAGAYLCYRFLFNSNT

Src [2] = target: T1, Src; assay: Assay of library: Src kinase-catalyzed phosphorylation of fluorophore-labeled peptides in presence of Lck-SH2, fluorescence change; assay type: biochemical; design: purchased Invitrogen; conditions: fluorophore attachment site +4; —NH2 derivative (in parentheses, amide-capped); Lck-SH2 present
Method: The library was prepared via parallel synthesis using a previously described disulfide-linked Tentagel resin (see “Synthesis of Peptide Library” below). Following solid phase synthesis of the primary sequence, the side chain amine of the Dap or Dab residue was selectively deprotected and subsequently modified with the appropriate activated forms of 5, 6, and 7. The remaining protecting groups on the peptide were then removed with trifluoroacetic acid (TFA), the peptide-resin extensively washed to eliminate the last traces of TFA, and the peptide cleaved from the resin with assay buffer (which contained dithiothreitol) and purified by HPLC. The fluorescent response of the individual library members to Src catalysis in the presence of Lck SH2 was subsequently examined in detail (see “Assay of Library” below).
as §1

Src [3] = target: T1, Src; assay: Vmax and Km of Src kinase-catalyzed phosphorylation at fixed Lck-SH2 (20 μM); assay type: biochemical; design: purchased Invitrogen; conditions: varying peptide
Method: as §1
The final Src concentration was 30 nM for peptide 13 and 15 nM for peptide 14.

Lck SH2 domain = target: T4, Lck SH2 domain (Homo sapiens, UniProt P06239); assay: Effect of competing Lck-SH2 domain ligand on the fluorescence change; assay type: binding; conditions: ligand 50 μM, peptide substrate 4 μM, GST-Lck-SH2 22 μM
T4 construct: made in house; host or cells: E. coli
T4 sequence (P06239 127-224 limits assumed): as the sequence (P06239 127-224 limits assumed) above
From the text: As is evident from Table 1, the dapoxyl fluorophore positioned off the +3 and +4 sites on the peptide substrate (Dap-5 and Dab-5) produce the largest changes in fluorescent behavior. Two peptides (13 and 14, FIG. 4) were examined in greater detail. Both peptides were resynthesized on the Rink resin and purified by HPLC. In addition, the phosphotyrosine version of 13 was enzymatically prepared. […] If the SH2 domain is responsible for the fluorescence change induced by Src kinase-catalyzed phosphorylation, then the Lck SH2 domain concentration should influence the observed fluorescence response. […] The reactions were initiated by the addition of ATP. When only buffer was added to “initiate” the reaction (i.e. no ATP), the fluorescence of the mixture remained unperturbed. Furthermore, in the absence of Lck SH2 domain, ATP addition to initiate the reaction furnished an exceedingly modest change in fluorescence intensity (<5%). By contrast, increasing concentrations of SH2 domain produced increasing enhancements in fluorescence intensity. Above an Lck SH2 concentration of 16 μM, the change in fluorescence intensity began to level off, which is in keeping with the notion that the interaction between phosphopeptide and Lck SH2 domain was approaching saturation. […]

[4] = fluorophore on Dap at position Y+3, λex/λem (nm) (first pair listed for the fluorophore)
[5] = fluorophore on Dab at position Y−2, λex/λem (nm) (first pair listed for the fluorophore)

Molecule: 27: corresponding peptide containing Cascade Yellow positioned at Y+3, SEQ ID NO:16 (EEEIYGE[Dap](Cascade Yellow)EA) [Peptide 27]
- Phosphorylation-induced fluorescence change (Src [1]): smaller fluorescence response

Molecule: CC[C@H](C)[C@H](NC(=O)[C@H](CCC(=O)O)NC(=O)[C@H](CNc1ccc([N+](=O)[O-])c2nonc12)NC(=O)[C@H](Cc1ccc(O)cc1)NC(=O)[C@@H](NC(=O)[C@H](CCC(=O)O)NC(=O)[C@H](CCC(=O)O)NC(=O)[C@H](CCC(=O)O)NC(C)=O)[C@@H](C)CC)C(=O)N[C@@H](CCC(=O)O)C(=O)N[C@@H](C)C(N)=O [Peptide 13, Ac-Glu-Glu-Glu-Ile-Tyr-Dap(NBD)-Glu-Ile-Glu-Ala] (Ac-EEEIY[Dap](NBD)EIEA-NH2)
- change in fluorescence intensity on ATP addition (GST-Lck-SH2; absence of Lck SH2 domain, peptide 16 μM): < 5%
- Fluorescence Increase (GST-Lck-SH2; peptide 16 μM, Lck-SH2 0 μM, 30 nM Src): 1.07 fold change
- Fluorescence Increase (GST-Lck-SH2; peptide 16 μM, Lck-SH2 4 μM, 30 nM Src): 1.24 fold change
- Fluorescence Increase (GST-Lck-SH2; peptide 16 μM, Lck-SH2 8 μM, 30 nM Src): 1.33 fold change
- Fluorescence Increase (GST-Lck-SH2; peptide 16 μM, Lck-SH2 12 μM, 30 nM Src): 1.41 fold change
- Fluorescence Increase (GST-Lck-SH2; peptide 16 μM, Lck-SH2 16 μM, 30 nM Src): 1.52 fold change
- Fluorescence Increase (GST-Lck-SH2; peptide 16 μM, Lck-SH2 20 μM, 30 nM Src): 1.56 fold change
- Fluorescence Increase (GST-Lck-SH2; peptide 16 μM, Lck-SH2 26 μM, 30 nM Src): 1.61 fold change
- Fluorescence Increase (GST-Lck-SH2; peptide 16 μM, Lck-SH2 32 μM, 30 nM Src): 1.59 fold change
- fluorescence change when PTP1B is added at the same time as ATP (PTP1B): blocked the fluorescence change
- fluorescence intensity when PTP1B is added after completion of the Src kinase-catalyzed reaction (PTP1B): reduced the fluorescence intensity to the starting value

Molecule: Ac-Glu-Glu-Glu-Ile-Tyr-Gly-Glu-Ile-Dab(dapoxyl)-Ala (Ac-EEEIYGEI[Dab](dapoxyl)A-NH2; not fully specified; printed as Ac-Glu-Glu-Glu-Ile-Tyr-Gly-Glu-Ile-Dab(dapoxyl)-Ala) [Peptide 14]
- Fluorescence Increase (GST-Lck-SH2; peptide 8 μM, Lck-SH2 0.2 μM, 15 nM Src): 1.07 fold change
- Fluorescence Increase (GST-Lck-SH2; peptide 8 μM, Lck-SH2 2 μM, 15 nM Src): 1.70 fold change
- Fluorescence Increase (GST-Lck-SH2; peptide 8 μM, Lck-SH2 4 μM, 15 nM Src): 2.32 fold change
- Fluorescence Increase (GST-Lck-SH2; peptide 8 μM, Lck-SH2 8 μM, 15 nM Src): 4.31 fold change
- Fluorescence Increase (GST-Lck-SH2; peptide 8 μM, Lck-SH2 12 μM, 15 nM Src): 5.34 fold change
- Fluorescence Increase (GST-Lck-SH2; peptide 8 μM, Lck-SH2 16 μM, 15 nM Src): 6.20 fold change
- Fluorescence Increase (GST-Lck-SH2; peptide 8 μM, Lck-SH2 20 μM, 15 nM Src): 6.85 fold change
- Fluorescence Increase (GST-Lck-SH2; peptide 8 μM, Lck-SH2 26 μM, 15 nM Src): 7.32 fold change
- Fluorescence Increase (GST-Lck-SH2; peptide 8 μM, Lck-SH2 32 μM, 15 nM Src): 7.20 fold change
- Fold change in fluorescence intensity in the Src kinase-catalyzed phosphorylation (Src [2]): 7.2 fold
- Km (Src [3]): 4.8 ± 0.8 µM
- Vmax (Src [3]): 1.5 ± 0.1 µmol/min/mg

Molecule: Ac-pTyr-Glu-Glu-Ile-Glu-amide (Ac-[pY]EEIE-NH2; SMILES CC[C@H](C)[C@H](NC(=O)[C@H](CCC(=O)O)NC(=O)[C@H](CCC(=O)O)NC(=O)[C@H](Cc1ccc(OP(=O)(O)O)cc1)NC(C)=O)C(=O)N[C@@H](CCC(=O)O)C(N)=O)
- fluorescence change of the Src reaction in presence of known Lck SH2 domain ligand (Lck SH2 domain): no fluorescence change was observed
- fluorescence change of the Src reaction in presence of known Lck SH2 domain ligand (Lck SH2 domain; listed as Ac-pTyr-Glu-Glu-Ile-Glu-OH): no fluorescence change

Molecule: BODIPY FL
- Fluorescence change (fold) (Src [1]; [4]): 1.06 fold

Molecule: Cascade Blue ™
- Fluorescence change (fold) (Src [1]; [5]): 2.1 fold
- Fluorescence change (fold) (Src [1]; fluorophore on Dap at position Y+3, λex 379 nm, λem 422 nm): 1.7 fold
- Fluorescence change (fold) (Src [1]; [4]): 1.7 fold

Molecule: Cascade Yellow (EE[Dab](Cascade Yellow)IYGEIEA)
- Fluorescence change (fold) (Src [1]; [5]): 2.7 fold
- Fluorescence change (fold) (Src [1]; [4]): 1.45 fold

Molecule: Dansyl
- Fluorescence change (fold) (Src [1]; [5]): 1.0 fold
- Fluorescence change (fold) (Src [1]; [4]): 1.0 fold

Molecule: NBD (Ac-EEEIY[Dap](NBD)EIEA-NH2; SMILES CC[C@H](C)[C@H](NC(=O)[C@H](CCC(=O)O)NC(=O)[C@H](CNc1ccc([N+](=O)[O-])c2nonc12)NC(=O)[C@H](Cc1ccc(O)cc1)NC(=O)[C@@H](NC(=O)[C@H](CCC(=O)O)NC(=O)[C@H](CCC(=O)O)NC(=O)[C@H](CCC(=O)O)NC(C)=O)[C@@H](C)CC)C(=O)N[C@@H](CCC(=O)O)C(=O)N[C@@H](C)C(N)=O)
- Fluorescence change (fold) (Src [1]; [5]): 1.7 fold
- Fluorescence change (fold) (Src [1]; [4]): 1.25 fold

Molecule: Sensor 26: Cascade Yellow-containing sensor, fluorophore on Dab at Y−2, SEQ ID NO:15 (EE[Dab](Cascade Yellow)IYGEIEA)
- Phosphorylation-induced fluorescence change (Src [1]): 2.7 fold
